This is an account of results in article PMC10524804.

The subject of the series is CpxR-R195H (Klebsiella pneumoniae HS11286 (ST11)?). The experiment in a line: ITC. The following applies: EMSA: Beyotime binding buffer (poly(dI-dC), DTT, glycerol, EDTA, NaCl, MgCl2, Tris), room temp, 2 pmol probe; footprinting: 50 mM Tris-HCl pH 8.0, 100 mM KCl …. (In general: A gel shift assay detects complexes by their altered migration in electrophoresis.)

With PblaKPC (Tn1721, ST11), unlabeled, the binding signal (fold lower affinity than wild type) was 100.
